The text below walks through data of US20130052176, “APTAMER FOR NGF AND USE THEREOF” (SHIONOGI & CO., LTD, published 2013).

Settings in all cases: tags: amine-coupled to CM5 chip in SPR; soluble in cell assays; chain copies: 2
Data set [1] has as its target T1, NGF (nerve growth factor) (human, UniProt P01138 P01138:122-241). Nature of the data set: cell_activity; neurite outgrowth, NGF 0.38 nM; SPR binding; TF-1 IC50 0.061 nM. On the procedure: (§1) The neurite outgrowth inhibitory activity of the aptamer obtained in Example 1 was evaluated by using Neuroscreen-1 cell, which is a subclone of PC-12 cells.
(§2) The cells (2500 cells per well) were cultured for one day in an RPMI-1640 medium containing 2.5% horse serum and 1.25% fetal bovine serum in a 96 well flat-bottom plate coated with collagen type IV. […] Two days later, the cytoplasm and nuclei were stained using Cellomics Neurite Outgrowth Kit (manufactured by Thermo Scientific), and neurite length per cell was measured by Cellomics ArrayScan VTI (manufactured by Thermo Scientific). With the neurite length per cell obtained by the addition of NGF alone as inhibitory activity 0%, and that of the cell obtained by NGF free culture for 2 days as inhibitory activity 100%, the inhibitory activity of the aptamer was calculated from the neurite length per cell obtained by culturing with the addition of NGF and the aptamer in mixture. When the inhibitory activity was 0% or below, ‘0%’ is indicated.

Data set [2] deals with T1, NGF (nerve growth factor). Briefly: cell_activity; neurite outgrowth, NGF 0.38 nM; SPR binding; TF-1 IC50 0.128 nM. The protocol: as §1, §2
Data set [3] concerns the target T1, NGF (nerve growth factor). Briefly: cell_activity; neurite outgrowth, NGF 0.38 nM; SPR binding; TF-1 IC50 0.108 nM. On the procedure: as §1, §2
Data set [4] concerns the target T1, NGF (nerve growth factor). Nature of the data set: cell_activity; neurite outgrowth, NGF 0.38 nM; SPR binding; TF-1 IC50 0.041 nM. On the procedure: as §1, §2
In general terms: SPR reads the build-up and loss of mass on a sensor chip optically.

In data set [5] the target is T1, NGF (nerve growth factor). Briefly: cell_activity; neurite outgrowth, NGF 0.38 nM; SPR binding; TF-1 IC50 0.081 nM.
The target in data set [6] is T1, NGF (nerve growth factor). Briefly: cell_activity; neurite outgrowth, NGF 0.38 nM; SPR binding; TF-1 IC50 0.072 nM. On the procedure:
as §1, §2

Data set [7] concerns the target T1, NGF (nerve growth factor). Briefly: cell_activity; neurite outgrowth, NGF 0.38 nM; SPR binding; TF-1 IC50 0.073 nM. On the procedure: as §1, §2
Data set [8] addresses T1, NGF (nerve growth factor). Briefly: cell_activity; neurite outgrowth, NGF 0.38 nM; SPR binding; TF-1 IC50 0.062 nM. On the procedure:
as §1, §2

In data set [9] the target is T1, NGF (nerve growth factor). Briefly: cell_activity; neurite outgrowth, NGF 0.38 nM; SPR binding; TF-1 IC50 0.211 nM. The protocol:
as §1, §2

For data set [10], the target named is T1, NGF (nerve growth factor). Nature of the data set: cell_activity; neurite outgrowth, NGF 0.38 nM; not tested by SPR; TF-1 IC50 0.051 nM. On the procedure: as §1, §2
Data set [11] concerns the target T1, NGF (nerve growth factor). Nature of the data set: cell_activity; neurite outgrowth, NGF 0.38 nM; SPR binding; TF-1 IC50 0.058 nM.
In data set [12] the target is T1, NGF (nerve growth factor). Nature of the data set: cell_activity; neurite outgrowth, NGF 0.38 nM; SPR binding; TF-1 IC50 <0.1 nM. On the procedure: as §1, §2
The target of data set [13] is T1, NGF (nerve growth factor). Briefly: cell_activity; neurite outgrowth, NGF 1.1 nM; SPR binding; TF-1 IC50 3.2 nM.
Data set [14] concerns the target T1, NGF (nerve growth factor). Briefly: cell_activity; neurite outgrowth, NGF 1.1 nM; SPR binding; TF-1 IC50 11.1 nM.
In data set [15] the target is T1, NGF (nerve growth factor). Briefly: cell_activity; neurite outgrowth, NGF 1.1 nM; SPR binding; blocks NGF-TrkA; TF-1 IC50 20.4 nM. The protocol:
as §1, §2

T1 sequence (P01138 122-241, one chain of several): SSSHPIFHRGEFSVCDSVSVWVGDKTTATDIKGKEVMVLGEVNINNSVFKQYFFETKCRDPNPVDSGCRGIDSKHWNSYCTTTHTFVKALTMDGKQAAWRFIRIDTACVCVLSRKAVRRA

B1: aptamer ID 26(44) (ssRNA)
RNA: GGGAGACUCGCCAGAGUUGAAAGAAACCCAAAUAAGUGUGCGCAC
modifications: 2'-F pyrimidines except 2'-OMe at 7,11,12,17,33,45; 2'-OMe purines except 2'-OH at 3,19,20,26; 5' idT and 3' idT
Consider B1, for which the IC50 (as a rule, the point on the concentration scale where inhibition reaches its midpoint) in data set [1] was found to be 0.074 nM.

B2: aptamer ID 26(43) (mixed)
RNA: GGGAGACUCGCCAGAGUUGAAAGAAACCCAAAUAAGUGUGCGCAC
modifications: 2'-F pyrimidines except dC at 7,9,11,12,29,45 and dT at 8,17,33,37; 2'-OMe purines except 2'-OH at 3,19,20,26; 5' idT and 3' idT
For B2, the IC50 in data set [2] stood at 0.073 nM.

B3: aptamer ID 26(51) (ssRNA)
RNA: GGGAGACUCGCCAGAGUUGAAAGAAACCCAAAUAAGUGUGCGCAC
modifications: 2'-F pyrimidines except 2'-OMe at 7,8,9,11,12,17,18,33,37,45; 2'-OMe purines except 2'-OH at 3,19,20; 5' idT and 3' idT
Take B3: the IC50 in data set [3] turned out to be 0.191 nM.

B4: aptamer ID 26(9) (ssRNA)
RNA: GGGAGACUCGCCAGAGUUGAAAGAAACCCAAAUAAGUGUGCGCAC
modifications: 2'-F pyrimidines; 2'-OMe purines except 2'-OH at 3,5,19-22,26; 5' idT and 3' idT
The molecule B4 displayed an IC50 in [4] of 0.052 nM. This lies in the picomolar range.

B5: aptamer ID 26(15) (ssRNA)
RNA: GGGAGACUCGCCAGAGUUGAAAGAAACCCAAAUAAGUGUGCGCAC
modifications: 2'-F pyrimidines; 2'-OMe purines except 2'-OH at 3,5,19,20,24,26; 5' idT and 3' idT
In the case of B5, in data set [5], the IC50 was determined as 0.067 nM.

B6: aptamer ID 26(52) (ssRNA)
RNA: GGGAGACUCGCCAGAGUUGAAAGAAACCCAAAUAAGUGUGCGCAC
modifications: 2'-F pyrimidines except 2'-OMe at 7,8,9,11,12,17,18,33,37,39,45; 2'-OMe purines except 2'-OH at 3,19,20,26; 5' idT and 3' idT
For B6, the IC50 in data set [6] worked out at 0.101 nM. That is a sub-nanomolar value.

B7: aptamer ID 26(42) (mixed)
RNA: GGGAGACUCGCCAGAGUUGAAAGAAACCCAAAUAAGUGUGCGCAC
modifications: 2'-F pyrimidines except dC at 9,29 and dT at 33,37; 2'-OMe purines except 2'-OH at 3,19,20,26; 5' idT and 3' idT
In turn, B7 displayed an IC50 in [7] of 0.083 nM.

B8: aptamer ID 26(49) (ssRNA)
RNA: GGGAGACUCGCCAGAGUUGAAAGAAACCCAAAUAAGUGUGCGCAC
modifications: 2'-F pyrimidines except 2'-OMe at 7,8,9,11,12,17,18,33,37,45; 2'-OMe purines except 2'-OH at 3,19,20,26; 5' idT and 3' idT
On to B8, for which, in data set [8], the IC50 was determined as 0.059 nM. That is a picomolar value.

B9: aptamer ID 26(31) (ssRNA)
RNA: GGGAGACUCGCCAGAGUUGAAAGAAACCCAAAUAAGUGUGCGCAC
modifications: 2'-F pyrimidines except 2'-OMe at 7; 2'-OMe purines except 2'-OH at 3,19,20,26; 5' idT and 3' idT
As for B9, the IC50 in data set [9] stood at 0.3 nM.

B10: aptamer ID 26(64) (ssRNA)
RNA: GGGAGACUCGCCAGAGUUGAAAGAAACCCAAAUAAGUGUGCGCAC
modifications: 2'-F pyrimidines except 2'-OMe at 7,8,9,11,12,17,18,33,37,39,45; 2'-OMe purines except 2'-OH at 3,19,20,26; 5' PEG80TS4 (ssH linker); 3' idT
The molecule B10 displayed an IC50 in [10] of 0.102 nM.

B11: aptamer ID 26(11) (ssRNA)
RNA: GGGAGACUCGCCAGAGUUGAAAGAAACCCAAAUAAGUGUGCGCAC
modifications: 2'-F pyrimidines; 2'-OMe purines except 2'-OH at 3,5,19-22; 5' idT and 3' idT
Turning to B11, the IC50 in data set [11] came out at 0.087 nM. This lies in the picomolar range.

B12: aptamer ID 26(38) (ssRNA)
RNA: GGGAGACUCGCCAGAGUUGAAAGAAACCCAAAUAAGUGUGCGCAC
modifications: 2'-F pyrimidines except 2'-OMe at 7; 2'-OMe purines except 2'-OH at 3,19,20,26; PS between 20 and 21; 5' idT and 3' idT
In [12], B12 had a 50% inhibitory concentration (IC50) of 0.145 nM.

B13: aptamer ID 19 (ssRNA)
RNA: GGGAGAACUUCGCCAGAAGUUUGAAAGAAACCCAAAUAAAGAUGUGCGCAUC
modifications: 2'-F at all pyrimidines
B13 gave an IC50 in data set [13] of 1.3 nM.

B14: aptamer ID 10 (ssRNA)
RNA: GGGAGAACUUCGCCAGAAGUUUGAAAGAAACCCAAAUUAAAAAGUAUGUGCGCAUACA
modifications: 2'-F at all pyrimidines
In data set [14], B14 showed an IC50 of under 3 nM.

B15: aptamer ID 1 (ssRNA)
RNA: GGGAGAACUUCGACCAGAAGUUUGAAAGAAACCCAAAUUAAAGUGAACAGUAUGUGCGCAUACA
modifications: 2'-F at all pyrimidines
Take B15: the IC50 in data set [15] came to 2.1 nM.
